Measured values taken from paper PMC11969024 (2025).

B1: peptide HD2 (from tick evasin EVA4) / CCL18 (biotinylated, synthetic) (parent complex)
chain 1: EEDDYTAYAPLTCYFT
chain 2: AQVGTNKELCCLVYTSWQIPQKFIVDYSETSPQCPKPGVILLTKRGRQICADPNKKWVQKYISDLKLNA
B2: peptide HD2 (from tick evasin EVA4) / CCL8 (biotinylated, synthetic) (parent complex)
chain 1: EEDDYTAYAPLTCYFT
chain 2: QPDSVSIPITCCFNVINRKIPIQRLESYTRITNIQCPKEAVIFKTKRGKEVCADPKERWVRDSMKHLDQIFQNLKP

Variants of: B1
With chain 1 A7E the enrichment was 2.03 log2 (difference from the parental peptide).
In the case of chain 1 A7F, the enrichment is reported as -2.38 log2 (difference from the parental peptide).
chain 1 A7P was tested, and the enrichment was 0.82 log2 (difference from the parental peptide).
With chain 1 A7S the enrichment was 0.379 log2 (difference from the parental peptide).
With chain 1 A7V the enrichment was -1.12 log2 (difference from the parental peptide).
With chain 1 A7G the enrichment was -0.215 log2 (difference from the parental peptide).
With chain 1 F15V the enrichment was 1.03 log2 (difference from the parental peptide).
chain 1 F15I was tested, and the enrichment was 0.366 log2 (difference from the parental peptide).
With chain 1 F15T the enrichment was 0.316 log2 (difference from the parental peptide).
chain 1 F15R was tested, and the enrichment was -0.00139 log2 (difference from the parental peptide).
chain 1 F15N was tested, and the enrichment was -2.68 log2 (difference from the parental peptide).
For chain 1 F15Y, the enrichment was 1.67 log2 (difference from the parental peptide).
For chain 1 F15H, the enrichment was 0.242 log2 (difference from the parental peptide).
chain 1 Y14R was tested, and the enrichment was -6.83 log2 (difference from the parental peptide).
chain 1 Y14L was tested, and the enrichment was -2.62 log2 (difference from the parental peptide).
chain 1 Y14T was tested, and the enrichment was -1.1 log2 (difference from the parental peptide).
chain 1 Y14I was tested, and the enrichment was -0.627 log2 (difference from the parental peptide).
With chain 1 Y14A the enrichment was -5.59 log2 (difference from the parental peptide).
For chain 1 C13M, the enrichment was -4.59 log2 (difference from the parental peptide).
In the case of chain 1 C13V, the enrichment is reported as -6.58 log2 (difference from the parental peptide).
chain 1 C13W was tested, and the enrichment was -6.26 log2 (difference from the parental peptide).
For chain 1 C13L, the enrichment was -7.42 log2 (difference from the parental peptide).
With chain 1 C13Y the enrichment was -5.14 log2 (difference from the parental peptide).
For chain 1 C13P, the enrichment was -7.21 log2 (difference from the parental peptide).
In the case of chain 1 T12H, the enrichment is reported as -0.953 log2 (difference from the parental peptide).
In the case of chain 1 T12Q, the enrichment is reported as -0.825 log2 (difference from the parental peptide).
For chain 1 T12K, the enrichment was -4.78 log2 (difference from the parental peptide).
For chain 1 T12G, the enrichment was -8.91 log2 (difference from the parental peptide).
In the case of chain 1 T12D, the enrichment is reported as -4.6 log2 (difference from the parental peptide).
For chain 1 P10W, the enrichment was -5.72 log2 (difference from the parental peptide).
chain 1 P10Y was tested, and the enrichment was -6.76 log2 (difference from the parental peptide).
With chain 1 T16Y the enrichment was -0.525 log2 (difference from the parental peptide).
In the case of chain 1 T16W, the enrichment is reported as -0.639 log2 (difference from the parental peptide).
For chain 1 T16E, the enrichment was 1.13 log2 (difference from the parental peptide).
For chain 1 T16S, the enrichment was 0.936 log2 (difference from the parental peptide).
With chain 1 T16P the enrichment was 1.74 log2 (difference from the parental peptide).
With chain 1 T16M the enrichment was 0.26 log2 (difference from the parental peptide).
For chain 1 T16V, the enrichment was 0.0426 log2 (difference from the parental peptide).
With chain 1 T16I the enrichment was -0.207 log2 (difference from the parental peptide).
In the case of chain 1 L11P, the enrichment is reported as -3.17 log2 (difference from the parental peptide).
chain 1 L11D was tested, and the enrichment was -8.28 log2 (difference from the parental peptide).
chain 1 L11E was tested, and the enrichment was -3.32 log2 (difference from the parental peptide).
chain 1 L11G was tested, and the enrichment was -7.45 log2 (difference from the parental peptide).
For chain 1 Y8I, the enrichment was -7.58 log2 (difference from the parental peptide).
In the case of chain 1 Y8M, the enrichment is reported as -6.37 log2 (difference from the parental peptide).
chain 1 Y8C was tested, and the enrichment was -8.88 log2 (difference from the parental peptide).
For chain 1 Y8T, the enrichment was -4.68 log2 (difference from the parental peptide).
For chain 1 Y8A, the enrichment was 0.303 log2 (difference from the parental peptide).
For chain 1 Y8N, the enrichment was -8.33 log2 (difference from the parental peptide).
With chain 1 Y8W the enrichment was 0.189 log2 (difference from the parental peptide).
With chain 1 E2L the enrichment was -1.93 log2 (difference from the parental peptide).
chain 1 E2Q was tested, and the enrichment was -1.4 log2 (difference from the parental peptide).
With chain 1 E2C the enrichment was -10.2 log2 (difference from the parental peptide).
In the case of chain 1 E2P, the enrichment is reported as -2.55 log2 (difference from the parental peptide).
For chain 1 E2A, the enrichment was -1.63 log2 (difference from the parental peptide).
chain 1 E2W was tested, and the enrichment was -1.25 log2 (difference from the parental peptide).
In the case of chain 1 A9T, the enrichment is reported as -3.35 log2 (difference from the parental peptide).
chain 1 A9S was tested, and the enrichment was -1.48 log2 (difference from the parental peptide).
In the case of chain 1 A9R, the enrichment is reported as -1.3 log2 (difference from the parental peptide).
In the case of chain 1 A9W, the enrichment is reported as -3.66 log2 (difference from the parental peptide).
In the case of chain 1 A9V, the enrichment is reported as -8.05 log2 (difference from the parental peptide).
chain 1 A9G was tested, and the enrichment was -3.53 log2 (difference from the parental peptide).
With chain 1 D4M the enrichment was -1.48 log2 (difference from the parental peptide).
With chain 1 D4L the enrichment was -2.06 log2 (difference from the parental peptide).
chain 1 D4H was tested, and the enrichment was -3.06 log2 (difference from the parental peptide).
With chain 1 D4A the enrichment was -1.65 log2 (difference from the parental peptide).
chain 1 D4T was tested, and the enrichment was -3.75 log2 (difference from the parental peptide).
In the case of chain 1 E1T, the enrichment is reported as -0.938 log2 (difference from the parental peptide).
In the case of chain 1 E1F, the enrichment is reported as -2.72 log2 (difference from the parental peptide).
With chain 1 E1W the enrichment was -2.19 log2 (difference from the parental peptide).
For chain 1 E1H, the enrichment was -1.83 log2 (difference from the parental peptide).
chain 1 E1Q was tested, and the enrichment was -1.1 log2 (difference from the parental peptide).
In the case of chain 1 E1D, the enrichment is reported as 1.97 log2 (difference from the parental peptide).
In the case of chain 1 E1V, the enrichment is reported as -1.49 log2 (difference from the parental peptide).
For chain 1 E1G, the enrichment was -0.506 log2 (difference from the parental peptide).
chain 1 T6H was tested, and the enrichment was 0.0995 log2 (difference from the parental peptide).
chain 1 T6D was tested, and the enrichment was 2.62 log2 (difference from the parental peptide).
With chain 1 T6G the enrichment was 2.9 log2 (difference from the parental peptide).
In the case of chain 1 T6P, the enrichment is reported as -2.2 log2 (difference from the parental peptide).
With chain 1 T6L the enrichment was -1.51 log2 (difference from the parental peptide).
With chain 1 T6Q the enrichment was 1.41 log2 (difference from the parental peptide).
In the case of chain 1 D3K, the enrichment is reported as -3.97 log2 (difference from the parental peptide).
With chain 1 D3V the enrichment was -2.61 log2 (difference from the parental peptide).
In the case of chain 1 D3Q, the enrichment is reported as -2.18 log2 (difference from the parental peptide).
With chain 1 D3N the enrichment was -1.71 log2 (difference from the parental peptide).
For chain 1 D3Y, the enrichment was -1.47 log2 (difference from the parental peptide).
For chain 1 D3P, the enrichment was 0.322 log2 (difference from the parental peptide).
chain 1 D3T was tested, and the enrichment was -2 log2 (difference from the parental peptide).
chain 1 D3S was tested, and the enrichment was -1.57 log2 (difference from the parental peptide).
In the case of chain 1 D3H, the enrichment is reported as -1.21 log2 (difference from the parental peptide).
chain 1 Y5E was tested, and the enrichment was -1.36 log2 (difference from the parental peptide).
In the case of chain 1 Y5P, the enrichment is reported as -4.12 log2 (difference from the parental peptide).
In the case of chain 1 Y5G, the enrichment is reported as -3.5 log2 (difference from the parental peptide).
chain 1 Y5S was tested, and the enrichment was -3.37 log2 (difference from the parental peptide).
With chain 1 Y5H the enrichment was -4.35 log2 (difference from the parental peptide).
With chain 1 Y5T the enrichment was -3.47 log2 (difference from the parental peptide).
chain 1 Y5F was tested, and the enrichment was -0.587 log2 (difference from the parental peptide).
With chain 1 Y5C the enrichment was -5.9 log2 (difference from the parental peptide).

Variants of: B2
chain 1 C13F was tested, and the enrichment was -0.473 log2 (difference from the parental peptide).
For chain 1 C13L, the enrichment was -1.06 log2 (difference from the parental peptide).
For chain 1 C13A, the enrichment was -2.32 log2 (difference from the parental peptide).
chain 1 T16I was tested, and the enrichment was 0.743 log2 (difference from the parental peptide).
In the case of chain 1 T16P, the enrichment is reported as 1.42 log2 (difference from the parental peptide).
In the case of chain 1 T16A, the enrichment is reported as 1.43 log2 (difference from the parental peptide).
For chain 1 T16H, the enrichment was 0.233 log2 (difference from the parental peptide).
For chain 1 T12S, the enrichment was 0.405 log2 (difference from the parental peptide).
In the case of chain 1 T12R, the enrichment is reported as 0.0146 log2 (difference from the parental peptide).
chain 1 T12N was tested, and the enrichment was 0.576 log2 (difference from the parental peptide).
chain 1 T12K was tested, and the enrichment was -0.15 log2 (difference from the parental peptide).
chain 1 F15I was tested, and the enrichment was 1.54 log2 (difference from the parental peptide).
In the case of chain 1 F15E, the enrichment is reported as 1.9 log2 (difference from the parental peptide).
For chain 1 F15K, the enrichment was 2.15 log2 (difference from the parental peptide).
With chain 1 F15T the enrichment was 2.65 log2 (difference from the parental peptide).
With chain 1 F15R the enrichment was 1.7 log2 (difference from the parental peptide).
In the case of chain 1 L11K, the enrichment is reported as 1.95 log2 (difference from the parental peptide).
For chain 1 A7N, the enrichment was 1.02 log2 (difference from the parental peptide).
With chain 1 A7H the enrichment was -0.321 log2 (difference from the parental peptide).
With chain 1 A7R the enrichment was -0.287 log2 (difference from the parental peptide).
With chain 1 A7F the enrichment was -0.605 log2 (difference from the parental peptide).
In the case of chain 1 P10T, the enrichment is reported as -7.38 log2 (difference from the parental peptide).
With chain 1 P10N the enrichment was -7.54 log2 (difference from the parental peptide).
chain 1 A9V was tested, and the enrichment was -3.26 log2 (difference from the parental peptide).
For chain 1 A9T, the enrichment was -0.868 log2 (difference from the parental peptide).
chain 1 A9G was tested, and the enrichment was -0.437 log2 (difference from the parental peptide).
For chain 1 A9M, the enrichment was -1.3 log2 (difference from the parental peptide).
With chain 1 A9S the enrichment was 0.31 log2 (difference from the parental peptide).
With chain 1 T6D the enrichment was 2.7 log2 (difference from the parental peptide).
chain 1 T6E was tested, and the enrichment was 2.76 log2 (difference from the parental peptide).
With chain 1 T6K the enrichment was -1.83 log2 (difference from the parental peptide).
chain 1 T6R was tested, and the enrichment was -0.801 log2 (difference from the parental peptide).
chain 1 Y8R was tested, and the enrichment was -6.7 log2 (difference from the parental peptide).
For chain 1 Y8L, the enrichment was -7.29 log2 (difference from the parental peptide).
chain 1 Y8M was tested, and the enrichment was -6.01 log2 (difference from the parental peptide).
For chain 1 Y14M, the enrichment was 1.03 log2 (difference from the parental peptide).
With chain 1 Y14C the enrichment was -2.25 log2 (difference from the parental peptide).
In the case of chain 1 Y14I, the enrichment is reported as 1.29 log2 (difference from the parental peptide).
With chain 1 Y14N the enrichment was 0.255 log2 (difference from the parental peptide).
For chain 1 Y14W, the enrichment was 0.518 log2 (difference from the parental peptide).
For chain 1 Y14P, the enrichment was -2.37 log2 (difference from the parental peptide).
In the case of chain 1 Y5E, the enrichment is reported as -1.42 log2 (difference from the parental peptide).
With chain 1 Y5I the enrichment was -2.45 log2 (difference from the parental peptide).
For chain 1 Y5W, the enrichment was -0.0149 log2 (difference from the parental peptide).
With chain 1 E1H the enrichment was -1.32 log2 (difference from the parental peptide).
For chain 1 E1W, the enrichment was -2.25 log2 (difference from the parental peptide).
chain 1 E1I was tested, and the enrichment was -1.02 log2 (difference from the parental peptide).
For chain 1 D4W, the enrichment was -3.2 log2 (difference from the parental peptide).
For chain 1 D4Y, the enrichment was -2.68 log2 (difference from the parental peptide).
In the case of chain 1 D3E, the enrichment is reported as 0.904 log2 (difference from the parental peptide).
For chain 1 E2Q, the enrichment was -2.83 log2 (difference from the parental peptide).
For chain 1 E2R, the enrichment was -3.19 log2 (difference from the parental peptide).
